According to patent publication US20250346682A1 (TENEOBIO, published 2025):

T1: human CD20 (B-lymphocyte antigen CD20) (human, UniProt P11836 1-297)
T1 construct: whole, on cells; also called MS4A1
T1 sequence (looked up): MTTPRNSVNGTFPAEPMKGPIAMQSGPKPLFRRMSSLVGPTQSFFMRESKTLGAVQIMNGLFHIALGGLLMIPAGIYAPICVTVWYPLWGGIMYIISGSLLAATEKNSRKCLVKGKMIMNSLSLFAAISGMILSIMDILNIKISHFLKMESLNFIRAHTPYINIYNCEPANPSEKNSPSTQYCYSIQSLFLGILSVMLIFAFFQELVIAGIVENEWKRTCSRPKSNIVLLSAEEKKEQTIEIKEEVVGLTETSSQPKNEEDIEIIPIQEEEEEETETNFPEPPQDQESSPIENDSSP


Target: T1, human CD20 (B-lymphocyte antigen CD20)
Assay: ELISA on CD20 protein and cell-binding assays

binding result | Binder
binds | anti-CD20 heavy chain-only antibody (UniAb) Clone ID 367912 (antibody, V domains shown, Heavy chain-only antibody (UniAb) from UniRat, called human IgG, with no light chain; also called VH912) VH: EVQLVESGGGVVRPGGSLRLSCAASGFTFDDYGMSWVRQAPGKGLEWVSSINWNGGSKGYADSVKGRFTISRDNAKNSLYLQMNSLRVEDTALYQCARERGYRIGHDSFDIWGQGTLVTVSS
binds | anti-CD20 heavy chain-only antibody (UniAb) Clone ID 367936 (antibody, V domains shown, Heavy chain-only antibody (UniAb) from UniRat, called human IgG, with no light chain; also called VH936) VH: QVQLQESGPGLVKPSETLSLTCTVSGGSVSSGNYYWNWIRQPPGKGLEWIGYIYSSGSTKYNPSLKSRVTILVDTSKNQFSLKLSSVTAADTAVYYCARSRLNGDGLFDDRGQGTLVTVSS
